Assay: yeast display, Sf9 membrane polyspecificity reagent, FACS + sequencing; frameworks hold sequencing errors
Summary of the method: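 Sorting gates, low and high (top ~1%), were placed on anti-HA fluorescence to track expression and on streptavidin fluorescence to track reagent binding. A clone's polyreactivity label is taken from the gate it came out of. The reagent was 10% biotinylated, detergent-solubilized Sf9 membrane, applied for 1 hour at 4 °C to galactose-induced yeast display cells.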

Row | Sequence | polyreactivity (PSR sort gate)
1 | QVQLQESGGGLVRAGGSLRLSCAASGYISTSIAMGWYRQAPGKERELVASFGRGAITNYADSVKGFTISRDNGKNSVYLQMNSLKPEDTAVYYCAVYHGDRGYYSYWGQGTQVNVSS | low polyreactivity
2 | QVQLQESGGGLVRAGGSLRMSCAASGNIFDADIMGWYRQAPGKERELVASITDGRRTNYADSVKGRYTISRDSEKNTVYLQMNSLKPEDTAVYYCAAIAYPVVPTYFDYDSDYFHWGQGTQVTVRS | high polyreactivity
3 | QVQLQESGGGLVRAGGSLSLSCAASGTIFGQFYMGRYRQAPGKEREFVATINYGSSTNYADSVKGRYTISRDNAKNTVYLQMNSLKPEDTAVYYCNTDFFYYGYNFPYFDYDYWGQGSQVTVSS | low polyreactivity
4 | QVQLQESGGGMVQAGGSLRLSCAASGYISWADYMGWYRQAPGKERELVAGIGYGSTTYYADSVKGRFTISRDNAKNTAYLQMNSLKPQYTAVYYCAVGWYRDTAYKYWGQGTQVTVSS | low polyreactivity
5 | QVQLQESGGGMVQAGGSLRLSCAASGYISWADYMVWYRQAPGKERELVAGIGYGSTTYYADSVKGRFTISRDNAKNTAYLQMNSLKPEDTAVYYCAVGWYRDTAYKYWGQGTQVTVSS | low polyreactivity
6 | QVQLQESGGGMVQAGVSLRLSCAASGTISNAPHMGWYRQAPAKERELVAGITIGGTTYYADSVKGRFTISRDNAKNTVYLQMNSLSPGVTAVYDCAAHSEQYTPFYYWGQGTQVTVSS | low polyreactivity
7 | QVQLQESGGGPVLAGGSLRLSCAASGTIFVRLDMGWYRQAPGKEREFVATIGSGSSTYYADSVKGSFTISRDNVKNTVYLQMNSLKPEDTAVYYCAVSAAEQSRHYYWDQGTQVTVSS | low polyreactivity
8 | QVQLQESGGGQVHAGGSLRLSCAASGTIFLYAFMGWYRQPPAKERELVAAIDVGTTTNYADSVKGRFTISRDNEKNTVYLQMNSLKPEDTAVYYCAANLGYLDDLGYWGQGTQVTVSS | low polyreactivity
9 | QVQLQESGGGQVQAGGSLRLSCAASGYMSTHYFMGWYRQSPGKDREFVAGISNGSITNYADSVKGRFTISRDNARNTVYLQMNSLKPEYTAVYYGAAFEWTYVRFGYWGQGTQVTVSG | high polyreactivity
10 | QVQLQESGGLVQAGGSLRLSCAASGSISGRNVMGWYRQAPGQEREFVASITDGSSTNYADSVKGRFTISRDNAKNTVYLQMNSLKPKDTAVYYCAAYAQRAKSFGYWGRGTQVTVSS | low polyreactivity
11 | QVQLQESGGLVQAGVSLRLSCAASGSISGRNVMGWYLQAPVKQREFVASITDGSSSNYADSVKGRFTISRDNAKNTVYLQMNSLKPTDTAVYYCAAYGLRPKSFGNWGGGTQVTVSS | low polyreactivity
12 | QVQLQESGGRLVQAGDSQRLSCASSGNIFRFTDMGWYRQAPGKERELVAAINAGSTTYYADSVKGRFTISRDNAKNTVYLQMNSLKPEDTAFYHCNDPPVYSSTRYGYWGQGTQVTVAS | high polyreactivity
13 | QVQLQESGGVLVQAGGSLRLSCAASGYISWYSEMGWYRKAPCKEREFVATNTCGTTTNYAVSVKGRFTISRDNAKNTVYLQKNSLKPEDTAVYYCAVHDARHYEFDYWGQGTQVTVSS | high polyreactivity
14 | QVQLQESGRGLVQAGGSLRLSCAASGTISQEDWMGWYRQAPGKEREFVAAIGLGSNTNYADSLKGRFTISRDNAKNTVYLQMNSLKPEDTAVYYCAVSVWQYSDHVYRGQGTQVTVSS | low polyreactivity
15 | QVQLQESGSGLVQARGSLRLSCAASGAIFPAYLMGWYRHAPGKERELVAGISYGSITYCADSVKGRFNISRDNAKNTVYLQRNSLKPEDTAVYYCAVWRPGGDEYYYWGQGTQVTVSS | low polyreactivity
16 | QVQLQESNGGLVQAGGCLRLSCAASGNIFDADIMGWFRKAPGIERELVASITDGGSTNYADSVKGRFTINRDNALNTVYLQMYSLKPEDTAVYYCAVSYKGWYQLGYWGQGTQVTVSS | high polyreactivity
17 | QVQLQESVGGLVQAGGILRLSCAACGNIFPSAVMGWYRQALGKEREFVATINSGSNTYYADSVKGRFTISRDNATNTVYLQMNSLKLEDTAVYYCAAYFKLPAWHTYWGQGTQVTVSS | low polyreactivity
18 | QVQLQESVGGLVQAGGSLRLSCAASGTIFWGDDMGWYRQAPGKERELVASINDGSITYYADSVKGRFTISRDNAKNTVYLQMNSLKPEDTAVYYCAVRIAVVKSYLIYNYWGQGTQVTVSS | high polyreactivity
19 | QVQLQETGGGLVQAGGILGCAASGNISTRSEMGWYRQATGKEREFVATINSGGITNYADSVKGRFTISRDNAKNTVYLRMNSLKPEDTAVYYRAVYGYFSDPYDYWGQGTQVTVSS | low polyreactivity
20 | QVQLQGSGGGLVQAGGSLRLSCAASGNIFDADIMGWYRQAPGKESELVASITDGGSTNYADSVKGRFTISRDNAKNTVYLQMNSLKQEDTAVYYCAAIAYPDIPTYFDYDSACFYWSQGTQVTVSS | high polyreactivity
21 | QVQLQGSGGGLVQAGGSLRLSCAASGNIFDADIMGWYRQAPGKESELVASITDGGSTNYADSVKGRFTISRDNAKNTVYLQMNSLKQVDTAVYYCAAIAYPDIPTYFDYDSDCFYWSQGTQVTVSS | high polyreactivity

Row | Sequence | polyreactivity (PSR sort gate)
22 | QVQLQGSGGGLVQAGVSLRLSCAASGYIFQNVPMGWNRHAPGKERELVAGIDNATSTNYADSVNGRFTISLDNAKNTVYLQMNSLKPEDTAVYYCAAAGQADNTLGYWGQGTQVTVSS | low polyreactivity
23 | QVQLQVSGGDLVQAGGSLRLSCEASGTIYGLTSMGWYRQAPGKEREFVAAITDGGNTNYADSVKGRFTISRDNAKNTVYLQMISLKPEDTGVYYCAVLFSDDAYYAYWGQGTQVTVSS | low polyreactivity
24 | QVQLRESGGGLVQAGGSLSLSCAASGTIFYSRYMGWYRQAPGKEREFVASNSSGGNTNYADSVKGRFTISRDNAKNTVYLQMNSLKPEVSAVYYCEVNTGLITTFPYWGQGTQVTVSS | high polyreactivity
25 | QVQLVASGGALVQAGGSLRLSCAASGRISTYTMGWYRQGPGKERELVATISTDASTNYADSVKGRFTISRDNAKNTVYLQMNSLKPEATAVYYCAAVIVNQDYDYWGQGTQLTVSS | low polyreactivity
26 | QVQLVASGGGFVQAGGSLRVSCAASGGTILGNAMGWDRQAPGKERELVATITARVGSTYYADSVKGRFTISRDNAKNTVYLQMNSLKPEDTAVYYCAARKVWGYTYGYPYYYWGQGTQVTVSS | high polyreactivity
27 | QVQLVASGGGIDQAGGSHRLSCAASGSIFPAYTMGWYRPAPGKERELVAAITRRGGSTYYADSVKGRFTISRDNAKNTVYLQMNSLKPEDSAVYYCAADGFNSDDTPSWYWGEYWGPGTQVTVSS | low polyreactivity
28 | QVQLVASGGGLVHAGGSLRLSCAASGGTFWDYAMGWSRQAPGKERELVAVISDSGGTYYADSVKGRFTISRDNAKNTVYLQMNSLKPEDTAVYYCAAGSLTLSTSTVWFAYDYWGQGTQVTVSS | high polyreactivity
29 | QVQLVASGGGLVQAGASLRLSCAASGFTFSLYGLGGYRQAPGKERELVAALRSGGSTNYADSVKGRFTISRDNAKNTVYLQLNSLKPEDTAVYYCATDIHSVLNNRVKHDYDYWGQGTQVTVSS | low polyreactivity
30 | QVQLVASGGGLVQAGGSLRISCAASGRTITPYAMGWYRQAPGKERELVATISSGTSPNYADSVKGRFTISRDNAKNTVYLQMNSLIPEDTAVYYCAADGYTYKFDYWGQGTQVTVSS | low polyreactivity
31 | QVQLVASGGGLVQAGGSLRLSCAASGFIFWYYAMGWYRQAPGKERELVATITSGGSTTYADSVKGRFTISRDNAKNTVYLQMYSLKPEDTAVYYCAAKGISRYDWGQGTQVTVSS | low polyreactivity
32 | QVQLVASGGGLVQAGGSLRLSCAASGFTFYYYAMGWYRKAPGKERELVAGISGRGGTTYYADSVKGRFTISRDNAKNTFYLQLNSLKPEDTAVYDCAARKVRARSKFEYWGQGNQVTVSS | high polyreactivity
33 | QVQLVASGGGLVQAGGSLRLSCAASGRTFKYNTMGWYRQAPGKERELVAVISRSGGRTYYADSVKGRFTISRDNAKNTVYLQMNSLKPEDTAVYYCAKGIPYADPQSAYDDYWGQGTQVTVSS | high polyreactivity
34 | QVQLVASGGGLVQAGGSLRLSCAASGSIFIYYTMGWYRQAPGKERELVAAINRGGSTYYADSVKGRFTISRDNAKNTVYLQMNSLKPEDTAVYYCNARYYRLPYWDAVKYDYWGQGTQVTVSS | low polyreactivity
35 | QVQLVASGGGLVQAGGSLRLSCAASGSIFTHNALGWSRQAPGNERALVAAISSGGSTNYADSVKGRFTISRDNAKNTVYLQMNSLKPEDTAVYYCAKSIDGWYWRRRRYDYWGQGTQVTVSS | low polyreactivity
36 | QVQLVASGGGLVQEGGSLRLSCAASGSTFYVNAMGWYRPAAGKERELVAAISLSGGRTYYADSVKGRFTISRDNAKNPVYLQMNSLNQEDTAVYYCAARDSARYYWGQGTQVTVSS | high polyreactivity
37 | QVQLVDAGGRLVQAGGSLRLSCAASGRIFAYYAMGWSRQAPGKDRELVSGISQRGSRTYYADSVKGRFTISRDNEKNTVYLQMNSLKPEDTAVYYCNTQRWGSGVGSLMDYWGQGTQVTVSS | high polyreactivity
38 | QVQLVDSAGGLVQAGGSLRLICAASGYTQIKNAMGVSRHAPGKERELVAAISSGGSTKYADSVKGRFTISRDNAKNTVYLQMNSLKPEDTAVYYCAKGRVVPYRRYTRIHMYHWGLGTQVTVSS | high polyreactivity
39 | QVQLVDSAGGLVQAGGSLRLSCDAYGSNFGVNAMGWYRQAPGKERELVAIITSTTYADSVKGRFTISRDNAKNTVYLQMNSLKREDTAVYYCAIDQERVTKGRFYLLEYDWGHGTQVTVSS | low polyreactivity
40 | QVQLVDSAGGLVQAGGSLSLSCAASGITFVSKVMGWYRQAPGKEREFVAAITGRGDSTYADSVKGRFTNSRDNAKNCVYLQMNSLKPEDTAVYYCAAEYSVPYRGWDGYEYWGQGTQVTVSS | low polyreactivity
41 | QVQLVDSCGVLVQAGGSLRLSCAASGITFNLYAMGWYRQAPGKERELVAAISNVGSTKYADSVKGRFTISRDNAKNTVYLQMNSLKPEDTAVYYCAAAQWAYWLLYNYWGQGTQVTVSS | low polyreactivity

From the nanobody polyreactivity screen of Harvey et al. (2022)
